Assay in all cases: in vitro binding assay
Assay [1] concerns the target T1, recombinant MHC class II protein of the HLA DRB1 0404 genotype (human).
T1 construct: construct not described

Assay [2] concerns the target T2, recombinant MHC class II protein of the HLA DRB1 0401 genotype (human).
T2 construct: construct not described; also called HLA-DR0401

The target of assay [3] is T3, recombinant MHC class II protein of the HLA DRB1 0101 genotype (human).
T3 construct: construct not described

Assay [4] has as its target T2, recombinant MHC class II protein of the …. The source holds these as a separate data set.
In assay [5] the target is T4, recombinant MHC class II protein of the HLA DRB1 0405 genotype (human).
T4 construct: construct not described

For assay [6], the target named is T5, recombinant MHC class II protein of the HLA DRB1 0408 genotype (human).
T5 construct: construct not described

The target in assay [7] is T1, recombinant MHC class II protein of the …. The source holds these as a separate data set.
Assay [8] has as its target T3, recombinant MHC class II protein of the …. The source holds these as a separate data set.
Assay [9] deals with T6, recombinant MHC class II protein of the HLA DRB1 1001 genotype (human).
T6 construct: construct not described

Like-named read-outs stand apart in the source and are kept apart here. Square brackets hold non-standard residues; d marks the D form. Ends that are not written are not given here. Cit = NC(=O)NCCC[C@H](N)C(=O)O

B1: citrullinated vimentin peptide ref no 159 (peptide)
peptide: XKLLEGEESXISLPL
modifications: citrulline (Xaa) at 1, 10
For B1, the binding result is listed as “no binding” in [1] and “binds” in [2].

B2: vimentin peptide ref no 59 (peptide)
peptide: YKSKFADLSEAANRN
As to B2, the binding result in assay [2] is recorded as “binds”.

B3: vimentin peptide ref no 71 (peptide)
peptide: FAVEAANYQDTIGRL
B3: in assay [2], the binding result is listed as “binds”.

B4: citrullinated vimentin peptide ref no 95 (peptide)
peptide: Y[Cit][Cit]MFGGPGTAS[Cit]PS
Consider B4, for which the binding result in assay [3] and in assay [2] was “binds” in each case.

B5: vimentin peptide ref no 55 (peptide)
peptide: DVRQQYESVAAKNLQ
As to B5, the binding result in assay [3] and in [2] was “binds” each time.

B6: citrullinated a-enolase peptide ref no 289 (peptide)
peptide: IFDS[Cit]GNPTVEVDLF
For the molecule B6, the binding result in assay [4] is “binds”; in [5], “binds”; in [6] it was “no binding”; in assay [7], “no binding”; in assay [8], “no binding”; in [9], “no binding”.

B7: vimentin peptide ref no 20 (peptide)
peptide: FKNTRTNEKVELQEL
For the molecule B7, the binding result in [2] is “binds”.

B8: citrullinated a-enolase peptide ref no 313 (peptide)
peptide: K[Cit]IAKAVNEKSCNCL
modifications: cysteine pairing not given here
In the case of B8, the binding result in assay [4] was “binds”; in assay [5], “binds”; in [6] it was “no binding”; in assay [7], “binds”; in [8], “binds”; in assay [9] it was “no binding”.

B9: citrullinated a-enolase peptide ref no 302 (peptide)
peptide: LPVGAANF[Cit]EAM[Cit]IG
For the molecule B9, the binding result in assay [4] is listed as “binds”; in [5] it was “binds”; in assay [6], “no binding”; in assay [7], “binds”; in assay [8] it was “no binding”; in [9] it was “no binding”.

B10: citrullinated vimentin peptide ref no 150 (peptide)
peptide: FAVEAANYQDTIG[Cit]L
Consider B10, for which the binding result in assay [2] is reported as “binds”.

B11: vimentin peptide ref no 92 (peptide)
peptide: GQVINETSQHHDDLE
With B11, in assay [1], the binding result was “binds”.

B12: citrullinated a-enolase peptide ref no 305 (peptide)
peptide: VIGMDVAASEFF[Cit]SG
As to B12, the binding result in [4] was “binds”; in [5] it was “binds”; in assay [6] it was “no binding”; in assay [7] it was “no binding”; in assay [8], “no binding”; in assay [9] it was “no binding”.

B13: citrullinated a-enolase peptide ref no 300 (peptide)
peptide: Y[Cit]HIADLAGNSEVIL
On to B13, for which the binding result in [4] is “binds”; in assay [5] it was “binds”; in [6], “no binding”; in assay [7], “no binding”; in assay [8] it was “no binding”; in [9] it was “no binding”.

B14: citrullinated vimentin peptide ref no 156 (peptide)
peptide: XEYQDLLNVKMALDI
modifications: citrulline (Xaa) at 1
As for B14, the binding result in [3] is reported as “binds”.

B15: vimentin peptide ref no 27 (peptide)
peptide: LLAELEQLKGQGKSR
As to B15, the binding result in [1] is listed as “no binding”; in [3] it was “binds”.

B16: corresponding non-citrullinated peptide of a-enolase peptide 300 (peptide)
peptide: YRHIADLAGNSEVIL
Regarding B16, in assay [4], the binding result is on record as “no binding”.

B17: citrullinated vimentin peptide ref no 132 (peptide)
peptide: F[Cit]QDVDNASLA[Cit]LDL
Consider B17, for which the binding result in assay [3] is reported as “binds”.

B18: vimentin peptide ref no 44 (peptide)
peptide: ARLDLERKVESLQEE
B18: in assay [1], the binding result is listed as “binds”.

B19: citrullinated vimentin peptide ref no 99 (peptide)
peptide: VTTST[Cit]TYSLGSAL[Cit]
Take B19: the binding result in [3] and in assay [2] was “binds” each time.

B20: vimentin peptide ref no 16 (peptide)
peptide: GVRLLQDSVDFSLAD
Turning to B20, the binding result was “no binding” in [3] and “binds” in assay [2].

B21: a-enolase peptide ref no 34 (peptide)
peptide: QEFMILPVGAANFRE
For the molecule B21, the binding result is on record as “binds” in assay [5]; “no binding” in [6]; “binds” in assay [7]; “binds” in assay [8]; “no binding” in [9].

B22: vimentin peptide ref no 13 (peptide)
peptide: YATRSSAVRLRSSVP
Take B22: the binding result in assay [3] was “binds”; in assay [2] it was “no binding”.

B23: citrullinated vimentin peptide ref no 93 (peptide)
peptide: MST[Cit]SVSSSSY[Cit][Cit]MF
For the molecule B23, the results for the binding result in assay [1], in assay [3] and in assay [2] were “binds”, “no binding” and “binds”, respectively.

B24: citrullinated a-enolase peptide ref no 287 (peptide)
peptide: MSILKIHA[Cit]EIFDS[Cit]
Turning to B24, the binding result in [4] is “binds”; in assay [5] it was “binds”; in assay [6] it was “no binding”; in assay [7], “binds”; in assay [8], “binds”; in [9], “binds”.

B25: corresponding non-citrullinated peptide of a-enolase peptide 324 (peptide)
peptide: KAKFAGRNFRNPLAK
Consider B25, for which the binding result in assay [4] was “no binding”.

B26: corresponding non-citrullinated peptide of a-enolase peptide 302 (peptide)
peptide: LPVGAANFREAMRIG
Turning to B26, in assay [4], the binding result was “no binding”.

B27: vimentin peptide ref no 42 (peptide)
peptide: FRQDVDNASLARLDL
As for B27, the values for the binding result in assay [1], in [3] and in [2] were “no binding”, “binds” and “binds”, respectively.

B28: vimentin peptide ref no 32 (peptide)
peptide: ELRRQVDQLTNDKAR
For the molecule B28, the binding result in assay [1] and in assay [3] was “binds” in each case.

B29: citrullinated a-enolase peptide ref no 301 (peptide)
peptide: QEFMILPVGAANF[Cit]E
As to B29, the binding result in assay [4] is given as “binds”; in assay [5] it was “binds”; in [6], “no binding”; in assay [7] it was “binds”; in assay [8], “no binding”; in [9] it was “no binding”.

B30: citrullinated a-enolase peptide ref no 292 (peptide)
peptide: F[Cit]AAVPSGASTGIYE
As to B30, the binding result in [4] was “binds”; in assay [5] it was “binds”; in assay [6], “no binding”; in assay [7], “binds”; in assay [8], “binds”; in [9], “no binding”.

B31: vimentin peptide ref no 14 (peptide)
peptide: SAVRLRSSVPGVRLL
Turning to B31, the binding result in [1] is reported as “binds”.

B32: vimentin peptide ref no 79 (peptide)
peptide: MALDIEIATYRKLLE
Regarding B32, the figures for the binding result in assay [1], in assay [3] and in [2] were “binds”, “binds” and “no binding”, respectively.

B33: corresponding non-citrullinated peptide of a-enolase peptide 292 (peptide)
peptide: FRAAVPSGASTGIYE
Take B33: in assay [4], the binding result was “no binding”.

B34: citrullinated a-enolase peptide ref no 297 (peptide)
peptide: [Cit]YMGKGVSKAVEHIN
Take B34: the binding result in [4] was “binds”; in assay [5], “binds”; in assay [6], “no binding”; in [7], “no binding”; in assay [8], “no binding”; in assay [9], “no binding”.

B35: a-enolase peptide ref no 49 (peptide)
peptide: VIGMDVAASEFFRSG
With B35, the binding result is recorded as “binds” in assay [5]; “binds” in assay [6]; “binds” in assay [7]; “no binding” in assay [8]; “no binding” in [9].

B36: citrullinated vimentin peptide ref no 145 (peptide)
peptide: STEY[Cit][Cit]QVQSLTCEV
Take B36: the binding result in [2] was “binds”.

(Values after patent US20200407424A1 (FRAUNHOFER GESELLSCHAFT ZUR F RDERUNG DER ANGEWANDTEN …, published 2020).)
